The experiment addresses T1, GST-AtWRI1 (Arabidopsis, UniProt Q6X5Y6 1-430).
T1 construct: Arabidopsis WRINKLED1 (AtWRI1), AT3G54320, full-length, sub-cloned into pET41a-GST; also called WRINKLED1; GST agarose-coupled AtWRI1; source: E. coli BL21 (DE3), purified
T1 sequence (looked up): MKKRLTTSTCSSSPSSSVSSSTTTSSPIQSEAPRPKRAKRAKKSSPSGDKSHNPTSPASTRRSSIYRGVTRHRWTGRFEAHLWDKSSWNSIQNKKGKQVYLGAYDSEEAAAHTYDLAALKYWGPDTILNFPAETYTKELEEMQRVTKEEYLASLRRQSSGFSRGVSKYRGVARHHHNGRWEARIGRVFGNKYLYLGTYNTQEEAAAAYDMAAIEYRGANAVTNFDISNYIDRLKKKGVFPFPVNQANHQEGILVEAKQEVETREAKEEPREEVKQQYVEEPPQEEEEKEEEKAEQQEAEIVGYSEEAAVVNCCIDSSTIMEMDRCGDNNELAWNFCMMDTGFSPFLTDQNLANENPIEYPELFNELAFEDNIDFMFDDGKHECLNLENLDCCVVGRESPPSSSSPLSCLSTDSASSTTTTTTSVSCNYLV
Nature of the experiment: pull-down; purified His-TCP20 incubated with GST beads coupled with purified GST-AtWRI1; 20 mM Tris-HCl pH 7.4, 150 mM NaCl, 1 mM DTT, 0.1 mM EDTA, 0.1% IGEPAL CA-630, 4 °C overnight, 5 washes; immunoblot with anti-His antibody. The conditions noted are these: both partners purified.

One molecule from PMC8840716, “Functional Antagonism of WRI1 and TCP20 Modulates GH3.3 Expression to Maintain Auxin Homeostasis in Roots” (Plants, 2022) can be followed below.

B1: His-TCP20 (natural protein)
chain: not shown
notes: Arabidopsis TCP20, AT3G27010, full-length, sub-cloned into pET41a-6xHis; also called His-tagged TCP20; source: E. coli BL21 (DE3), purified
In the case of B1, the binding result is “binds”.
